The values that follow come from paper PMC7383930 (Journal of Medicinal Chemistry, 2020).

Substitutions are numbered along the chain they refer to.

In assay [1] the target is PSMA on PC3-PIP (PSMA+) prostate cancer cells (Homo sapiens, UniProt Q04609). In words: cell-based or functional assay.
The target in assay [2] is purified extracellular domain of PSMA (prostate-specific membrane antigen), residues 44–750 (human, UniProt Q04609). In words: SPR; ProteOn XPR36 chip; each NB (0.2 μg) immobilised by amine coupling (sulfo-NHS/EDC, 10 mM sodium acetate pH 5.0); soluble PSMA flowed at 25 μL/min (25-3200 pM for NB7; 2.94-47.00 nM for NB8, NB13, NB37); dissociation in PBST (0.005% Tween); BSA surface subtracted; Langmuir 1:1 kinetic model; 25 °C. Conditions: both partners purified. (In general: In SPR one partner is held on a chip, and binding of the other changes the refractive index at the surface.)
purified extracellular domain of PSMA (prostate-specific membrane antigen), residues 44–750, sequence (Q04609 44-750): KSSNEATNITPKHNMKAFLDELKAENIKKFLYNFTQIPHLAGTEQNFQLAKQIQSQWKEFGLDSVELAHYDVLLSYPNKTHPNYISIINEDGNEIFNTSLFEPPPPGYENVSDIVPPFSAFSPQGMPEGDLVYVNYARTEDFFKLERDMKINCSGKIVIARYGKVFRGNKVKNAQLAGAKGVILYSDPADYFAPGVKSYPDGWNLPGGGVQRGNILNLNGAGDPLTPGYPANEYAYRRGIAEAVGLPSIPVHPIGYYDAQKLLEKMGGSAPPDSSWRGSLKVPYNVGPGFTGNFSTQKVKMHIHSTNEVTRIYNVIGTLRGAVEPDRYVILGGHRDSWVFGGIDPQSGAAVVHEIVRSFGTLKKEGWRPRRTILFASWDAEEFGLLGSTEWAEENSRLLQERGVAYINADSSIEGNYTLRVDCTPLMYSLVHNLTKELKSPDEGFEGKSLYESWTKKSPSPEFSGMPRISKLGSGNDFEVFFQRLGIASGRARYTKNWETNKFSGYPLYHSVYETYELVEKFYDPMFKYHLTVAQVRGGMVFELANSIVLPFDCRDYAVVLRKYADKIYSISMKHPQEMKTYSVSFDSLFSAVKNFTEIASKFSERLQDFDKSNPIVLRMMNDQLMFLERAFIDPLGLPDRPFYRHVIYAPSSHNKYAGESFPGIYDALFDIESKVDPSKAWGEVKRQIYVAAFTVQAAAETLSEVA

As a reminder, the Kd is the constant that tells how readily two partners part at equilibrium. Higher therefore signals lower affinity. For orientation: koff means the first-order rate constant of dissociation. Read a low koff as a long-lived complex. As usually defined, the kon is a measure of how fast the partners come together.

PSMA on PC3-PIP (PSMA+) prostate cancer cells, sequence (Q04609 whole entry, the tested form may be a part): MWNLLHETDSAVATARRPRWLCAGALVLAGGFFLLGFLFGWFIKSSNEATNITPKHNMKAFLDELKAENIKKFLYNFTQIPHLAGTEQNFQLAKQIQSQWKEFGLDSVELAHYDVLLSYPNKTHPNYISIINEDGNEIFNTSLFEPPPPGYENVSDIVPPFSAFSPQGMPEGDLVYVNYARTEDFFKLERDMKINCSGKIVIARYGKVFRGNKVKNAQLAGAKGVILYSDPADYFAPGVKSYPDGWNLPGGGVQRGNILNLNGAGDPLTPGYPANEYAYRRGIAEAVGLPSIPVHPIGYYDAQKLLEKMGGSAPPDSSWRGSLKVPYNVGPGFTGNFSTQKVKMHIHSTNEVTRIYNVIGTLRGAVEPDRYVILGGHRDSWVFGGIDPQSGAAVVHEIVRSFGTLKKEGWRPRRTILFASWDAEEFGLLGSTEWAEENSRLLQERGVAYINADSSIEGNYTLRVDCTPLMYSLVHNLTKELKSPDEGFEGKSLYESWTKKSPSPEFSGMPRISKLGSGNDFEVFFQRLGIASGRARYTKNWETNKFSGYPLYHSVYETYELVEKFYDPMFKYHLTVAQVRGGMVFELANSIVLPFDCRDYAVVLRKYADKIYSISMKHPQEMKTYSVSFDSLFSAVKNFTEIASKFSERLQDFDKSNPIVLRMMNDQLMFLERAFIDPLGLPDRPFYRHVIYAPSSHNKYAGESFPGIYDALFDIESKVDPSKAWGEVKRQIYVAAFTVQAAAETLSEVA

B1: NB37 (VHH)
VHH: QVQLQESGGGSVEAGGSLRLSCARSGWPYSTYSMNWFRQAPGKEREAVAGISSTMSGIIFAESKAGQFTISQDNAKNTVYLQMNNLKPEDTAIYYCAARRDYSLSSSSDDFDYWGQGTQVTVSS
For the molecule B1, the “whole-body NIR imaging of mice with PC3-PIP xenografts, AF680-labelled NB: duration until the fluorescent signal was no longer detected” value in assay [1] came to 24 h. For the same molecule, in assay [2], binding was characterised by a dissociation constant (Kd) of 3.4 nM, the dissociation rate constant (koff) was 7.5e-05 s⁻¹ and the kon amounted to 22000 M⁻¹ s⁻¹.

B2: NB8 (VHH)
VHH: B1 VHH with E13Q
With B2, in assay [1], the “whole-body NIR imaging of mice with PC3-PIP xenografts, AF680-labelled NB: duration until the fluorescent signal was no longer detected” value is 32 h. In assay [2], this molecule yielded a Kd of 6 nM, a koff of 0.00012 s⁻¹ and a kon of 20000 M⁻¹ s⁻¹.

B3: NB13 (VHH)
VHH: QVQLQESGGGSVQTGGSLRLSCAASGYTASFSWIGYFRQAPGKEREGVAVINVGVGSTYYADSVKGRFTISRDNTENTISLEMNSLKPEDTGLYYCAGSLRWSRPPNPISEDAYNYWGQGTQVTVSS
Turning to B3, in assay [1], the “whole-body NIR imaging of mice with PC3-PIP xenografts, AF680-labelled NB: duration until the fluorescent signal was no longer detected” value stood at 32 h. In assay [2], this molecule showed a Kd of 0.6 nM, a koff of 2.2e-05 s⁻¹ and a kon of 36000 M⁻¹ s⁻¹.

B4: NB7 (VHH)
VHH: QVQLQESGGGSVQAGGSLRLSCTAPGYTDSNYYMSWFRQAPGKEREWVAGVNTGRGSTSYADSVKGRFTISQDNAKNTMFLQMNSLKPEDTAIYYCAVAACHFCDSLPKTQDEYILWGQGTQVTVSS
In assay [2], B4 registered a Kd of 0.055 nM, an off-rate (koff) of 3.9e-05 s⁻¹ and a kon of 710000 M⁻¹ s⁻¹.
